Reference: PMC3438448

Key:
[1] = biological target: GST-dynein_(331 kDa) (S. cerevisiae) (UniProt P36022)
[2] = biological target: GST-dynein_(331 kDa) (S. cerevisiae) (UniProt P36022); remark: listed apart in the source

GST-dynein_(331 kDa) (S. cerevisiae), sequence (P36022 whole entry): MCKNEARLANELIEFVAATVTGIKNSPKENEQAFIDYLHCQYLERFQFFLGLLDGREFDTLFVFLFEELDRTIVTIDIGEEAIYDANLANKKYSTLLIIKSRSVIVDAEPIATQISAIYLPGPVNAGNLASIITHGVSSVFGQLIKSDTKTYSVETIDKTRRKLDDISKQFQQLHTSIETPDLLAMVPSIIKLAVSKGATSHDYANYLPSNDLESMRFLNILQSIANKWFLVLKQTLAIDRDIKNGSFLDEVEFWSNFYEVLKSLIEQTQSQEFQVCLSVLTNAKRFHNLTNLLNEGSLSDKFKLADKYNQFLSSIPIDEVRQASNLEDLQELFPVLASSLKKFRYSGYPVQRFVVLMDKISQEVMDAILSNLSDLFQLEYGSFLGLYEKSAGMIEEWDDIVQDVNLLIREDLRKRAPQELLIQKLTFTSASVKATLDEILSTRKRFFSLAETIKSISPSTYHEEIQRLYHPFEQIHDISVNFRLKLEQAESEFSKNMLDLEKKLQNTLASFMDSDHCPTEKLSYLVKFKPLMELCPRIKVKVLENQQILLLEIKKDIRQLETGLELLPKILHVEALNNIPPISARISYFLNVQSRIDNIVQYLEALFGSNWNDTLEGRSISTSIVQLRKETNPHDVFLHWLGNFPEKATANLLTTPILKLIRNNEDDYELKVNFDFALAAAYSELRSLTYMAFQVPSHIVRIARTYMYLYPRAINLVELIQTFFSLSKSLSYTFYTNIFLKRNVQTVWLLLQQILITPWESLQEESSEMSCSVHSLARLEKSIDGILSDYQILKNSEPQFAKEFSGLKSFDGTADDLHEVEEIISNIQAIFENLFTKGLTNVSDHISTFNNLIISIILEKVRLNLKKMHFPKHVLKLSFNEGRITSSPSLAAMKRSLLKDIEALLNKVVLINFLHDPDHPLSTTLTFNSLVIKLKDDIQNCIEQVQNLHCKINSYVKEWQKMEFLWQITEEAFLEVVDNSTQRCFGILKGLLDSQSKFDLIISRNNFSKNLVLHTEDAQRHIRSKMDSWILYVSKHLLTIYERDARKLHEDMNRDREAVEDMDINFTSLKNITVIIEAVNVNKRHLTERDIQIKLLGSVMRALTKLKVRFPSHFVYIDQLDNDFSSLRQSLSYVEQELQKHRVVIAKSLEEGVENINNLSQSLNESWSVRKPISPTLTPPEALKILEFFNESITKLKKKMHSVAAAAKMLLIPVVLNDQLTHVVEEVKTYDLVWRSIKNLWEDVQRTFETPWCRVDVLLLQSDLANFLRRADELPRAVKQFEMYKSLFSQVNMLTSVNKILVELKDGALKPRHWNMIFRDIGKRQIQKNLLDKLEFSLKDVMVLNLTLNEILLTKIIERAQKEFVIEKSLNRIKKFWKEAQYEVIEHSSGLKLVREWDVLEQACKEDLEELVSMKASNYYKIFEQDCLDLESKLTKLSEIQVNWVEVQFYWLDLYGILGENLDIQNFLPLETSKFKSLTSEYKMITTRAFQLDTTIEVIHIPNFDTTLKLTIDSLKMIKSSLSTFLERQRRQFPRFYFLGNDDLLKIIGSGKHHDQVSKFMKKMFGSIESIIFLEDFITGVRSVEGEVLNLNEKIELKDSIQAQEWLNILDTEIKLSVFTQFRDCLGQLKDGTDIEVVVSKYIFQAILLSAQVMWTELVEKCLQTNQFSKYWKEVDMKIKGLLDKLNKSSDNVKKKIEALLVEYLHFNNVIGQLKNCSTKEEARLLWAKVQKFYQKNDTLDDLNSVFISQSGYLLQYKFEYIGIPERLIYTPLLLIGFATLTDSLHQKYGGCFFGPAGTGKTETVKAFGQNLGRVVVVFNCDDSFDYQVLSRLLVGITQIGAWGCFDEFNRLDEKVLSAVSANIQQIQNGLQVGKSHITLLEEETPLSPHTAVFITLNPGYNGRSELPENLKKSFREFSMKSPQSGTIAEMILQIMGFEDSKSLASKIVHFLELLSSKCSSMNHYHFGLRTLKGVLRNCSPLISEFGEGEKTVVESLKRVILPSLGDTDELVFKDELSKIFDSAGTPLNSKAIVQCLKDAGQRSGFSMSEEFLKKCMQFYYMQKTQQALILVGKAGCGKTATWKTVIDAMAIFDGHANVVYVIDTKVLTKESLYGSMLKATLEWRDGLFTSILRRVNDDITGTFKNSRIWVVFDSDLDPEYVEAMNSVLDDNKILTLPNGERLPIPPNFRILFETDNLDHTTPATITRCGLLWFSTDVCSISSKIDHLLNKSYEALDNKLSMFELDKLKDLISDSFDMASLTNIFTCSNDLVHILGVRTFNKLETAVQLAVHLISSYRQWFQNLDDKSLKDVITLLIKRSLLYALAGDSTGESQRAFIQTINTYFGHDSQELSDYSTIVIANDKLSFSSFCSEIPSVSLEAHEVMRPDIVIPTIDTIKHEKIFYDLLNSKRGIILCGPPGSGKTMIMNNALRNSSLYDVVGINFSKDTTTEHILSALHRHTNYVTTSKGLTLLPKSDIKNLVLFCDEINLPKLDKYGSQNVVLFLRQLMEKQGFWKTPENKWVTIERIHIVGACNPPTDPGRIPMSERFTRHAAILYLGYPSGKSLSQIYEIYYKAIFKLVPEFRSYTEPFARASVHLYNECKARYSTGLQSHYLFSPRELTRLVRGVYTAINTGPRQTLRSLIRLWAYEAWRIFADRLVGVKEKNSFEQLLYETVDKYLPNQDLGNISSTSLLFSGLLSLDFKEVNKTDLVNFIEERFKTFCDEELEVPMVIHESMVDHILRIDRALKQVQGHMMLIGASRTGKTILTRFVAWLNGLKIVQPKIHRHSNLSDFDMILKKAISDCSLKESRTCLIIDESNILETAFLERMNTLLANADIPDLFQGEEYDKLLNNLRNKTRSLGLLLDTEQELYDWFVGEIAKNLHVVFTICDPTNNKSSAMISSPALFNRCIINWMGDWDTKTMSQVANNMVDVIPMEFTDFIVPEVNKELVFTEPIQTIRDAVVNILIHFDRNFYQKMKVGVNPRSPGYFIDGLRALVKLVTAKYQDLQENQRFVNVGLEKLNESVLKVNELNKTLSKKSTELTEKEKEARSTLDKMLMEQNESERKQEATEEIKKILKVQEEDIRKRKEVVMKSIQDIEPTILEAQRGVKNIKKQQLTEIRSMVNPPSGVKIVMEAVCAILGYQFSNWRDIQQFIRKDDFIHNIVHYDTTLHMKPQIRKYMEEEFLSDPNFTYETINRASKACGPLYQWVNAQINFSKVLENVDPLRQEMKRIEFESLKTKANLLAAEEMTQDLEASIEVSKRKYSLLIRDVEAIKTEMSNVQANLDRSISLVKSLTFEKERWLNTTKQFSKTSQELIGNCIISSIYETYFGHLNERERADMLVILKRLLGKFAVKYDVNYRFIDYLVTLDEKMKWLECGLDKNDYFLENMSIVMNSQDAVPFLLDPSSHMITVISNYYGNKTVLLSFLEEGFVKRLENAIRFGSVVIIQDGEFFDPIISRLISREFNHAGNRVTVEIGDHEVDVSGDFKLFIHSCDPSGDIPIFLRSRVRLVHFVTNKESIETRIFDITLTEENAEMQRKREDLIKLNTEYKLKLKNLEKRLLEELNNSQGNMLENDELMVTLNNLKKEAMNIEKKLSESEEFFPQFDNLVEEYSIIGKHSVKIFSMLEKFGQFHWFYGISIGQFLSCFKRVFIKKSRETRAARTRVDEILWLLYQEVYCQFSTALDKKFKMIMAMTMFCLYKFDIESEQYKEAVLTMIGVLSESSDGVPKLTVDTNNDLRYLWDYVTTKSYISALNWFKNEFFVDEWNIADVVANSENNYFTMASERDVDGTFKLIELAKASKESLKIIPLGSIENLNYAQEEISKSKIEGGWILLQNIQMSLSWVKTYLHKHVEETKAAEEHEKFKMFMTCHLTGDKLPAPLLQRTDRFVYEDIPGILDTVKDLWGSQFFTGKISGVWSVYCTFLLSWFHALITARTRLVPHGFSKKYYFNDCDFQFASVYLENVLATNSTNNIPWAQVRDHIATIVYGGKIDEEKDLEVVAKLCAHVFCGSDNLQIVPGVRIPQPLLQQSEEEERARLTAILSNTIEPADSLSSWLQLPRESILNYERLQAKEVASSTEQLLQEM

- K1/2: Lis1 concentration for half-maximal velocity reduction (experiment with the AAA4 mutants) [1]: 15.7 nM
- K1/2: Lis1 concentration for half-maximal reduction of single-molecule GST-dynein (331 kDa) velocity [2]: 15.3 nM
B1: Lis1 (S. cerevisiae Pac1) (natural protein)
chain: MTNWQQQLPLTDTQKNELDKSVLRYLNWNYKQTVRHEHAQDYESVRHAIVTLSGFLLQESVDRQEFISNNDTSNESMVDIDELLLPKKWNSIVRLQKKIIELEQNTETLVSQIKDLNTQVSELAQFKPTTSNGTSAHNVLKWIPRNLPSCLINVESSVTSVKLHPNLPIVFVATDHGKLYAFDLFNYTIPLASLQSHTKAITSMDVLFTNYTNSSKKNYLVIVTASKDLQIHVFKWVSEECKFQQIRSLLGHEHIVSAVKIWQKNNDVHIASCSRDQTVKIWDFHNGWSLKTFQPHSQWVRSIDVLGDYIISGSHDTTLRLTHWPSGNGLSVGTGHEFPIEKVKFIHFIEDSPEIRFRTPSTDRYKNWGMQYCVSASRDRTIKIWEIPLPTLMAHRAPIPNPTDSNFRCVLTLKGHLSWVRDISIRGQYLFSCADDKSVRCWDLNTGQCLHVWEKLHTGFVNCLDLDVDFDSNVTPRQMMVTGGLDCKSNVFMR
